Test results taken from patent US20100056392A1, “MICROSTRUCTURE AND MICRODOMAIN MICROARRAYS, METHODS OF MAKING SAME AND USES THEREOF” (priority 2005, published 2010).
{AminoPEG9} = amino group attached through a PEG9 spacer, used for covalent surface attachment

T1: transcription factor GAL80 (Saccharomyces cerevisiae, UniProt P04387)
T1 sequence (P04387 1-435): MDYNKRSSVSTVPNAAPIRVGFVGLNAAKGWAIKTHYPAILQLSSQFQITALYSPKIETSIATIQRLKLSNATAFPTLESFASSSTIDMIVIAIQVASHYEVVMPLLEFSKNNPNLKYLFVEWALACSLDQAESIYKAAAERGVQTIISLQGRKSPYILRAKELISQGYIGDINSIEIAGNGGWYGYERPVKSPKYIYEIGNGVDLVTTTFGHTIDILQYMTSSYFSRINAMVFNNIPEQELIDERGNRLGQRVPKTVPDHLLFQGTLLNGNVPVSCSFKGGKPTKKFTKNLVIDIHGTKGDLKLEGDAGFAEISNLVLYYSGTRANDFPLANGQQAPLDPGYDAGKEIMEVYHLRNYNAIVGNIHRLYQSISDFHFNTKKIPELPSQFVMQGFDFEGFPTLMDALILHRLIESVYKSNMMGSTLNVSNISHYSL

B1: Consensus DNA: covalently bound DNA containing three repeats of the consensus sequence for the transcription factor AP-1 (c-JUN), hybridized to Texas Red complement (nucleic acid)
DNA: CGCTTGATGAGTCAGCCGGAACGCTTGATGAGTCAGCCGGAACGCTTGATGAGTCAGCCGGAAGCTTCCGGTAAATTT
modifications: DNA, 5' {AminoPEG9}, backbone not given here; further chemistry not fully specified

Tests used:
[1] = target: T1, transcription factor GAL80; details: template peptide of the array; cited from earlier work
[2] = target: T2, transcription factor AP-1 (c-JUN) (Homo sapiens, UniProt P05412); experiment: rhAP1 binding to DNA grafted polymer microstructures, in situ trypsin digest and MALDI-MS peptide mass fingerprinting; details: rhAP1 0.3 ug/ml 1:1 with buffer Z, 0.5 hrs at RT and 2 hrs at 4 C; identified by MALDI-MS, not in control
T2 construct: purchased Promega Corp (Madison, Wis.)
Description: This array was then washed with sterile water and a 1:1 mixture of rhAP1 protein 0.3 μg/ml and buffer Z (25 mM HEPES K+ pH 7.8, 12.5 mM MgCl2, 1 μM DTT, 20% glycerol, 0.1 Nonidet p40) and 2 μL was spotted onto all 5 microstructures. This was allowed to bind for 0.5 hrs at RT and 2 hrs at 4 C and then rinsed with sterile water at 4° C. The fluorescence was rechecked and the treatment spots were still fluorescent. 2 μL of a 1:100 dilution of 10 μg/mL trypsin in 25 mM ammonium carbonate and sterile water was spotted onto one feature and the array was left at 37° C. overnight.
A slightly subsaturated solution of α-cyano-4-hydroxycinnamic acid solution of 1:2 acetonitrile:water with 1% TFA was spotted, 2 μL per feature on to the array and left in hybridization chamber for 45 min. This was then dried and spotted with 1 μL of a saturated solution of α-cyano-4-hydroxycinnamic acid in 1:1 acetonitile:water with 0.1% TFA. […] Ions were only detected coming from the trypsin digest array element.
This array was then washed with sterile water and a 1:1 mixture of rhAP1 protein 0.3 ug/ml and buffer Z (25 mM HEPES K+ pH 7.8, 12.5 mM MgCl2, 1 uM DTT, 20% glycerol, 0.1 Nonidet p40) and 2 uL was spotted onto all 5 microstructures. […] The fluorescence was rechecked and the treatment spots were still fluorescent. […]

T2 sequence (P05412 whole entry): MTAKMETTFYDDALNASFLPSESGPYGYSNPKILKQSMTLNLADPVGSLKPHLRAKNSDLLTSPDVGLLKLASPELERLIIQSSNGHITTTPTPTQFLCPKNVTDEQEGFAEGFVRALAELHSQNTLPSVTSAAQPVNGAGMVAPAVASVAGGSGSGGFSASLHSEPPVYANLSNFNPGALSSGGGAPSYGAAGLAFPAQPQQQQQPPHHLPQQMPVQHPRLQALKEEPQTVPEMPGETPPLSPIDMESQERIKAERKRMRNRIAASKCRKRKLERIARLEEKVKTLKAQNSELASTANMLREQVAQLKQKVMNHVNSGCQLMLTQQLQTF

Molecule | binding to transcription factor GAL80 [1] | binding of transcription factor AP-1 to immobilized consensus DNA [2]
EGEWTEGKLSLR [template for 8,000 array variants substituted at positions 1, 3, 6] | known to bind | 
B1 |  | bind the transcription factor AP-1
